Assay [1] addresses T1, PSS8 expressed on cells (human, UniProt Q16651 30-343).
T1 construct: Clone of the Origene human cDNA library; also called Protease serine 8; prostasin
The assay is described as follows: flow cytometry, transfected 293T cells, 2 µg/ml.

For assay [2], the target named is T2, IL-2Ra expressed on cells (human, UniProt P01589 22-272).
T2 construct: Clone of the Origene human cDNA library; also called Interleukin 2 receptor alpha
T2 sequence: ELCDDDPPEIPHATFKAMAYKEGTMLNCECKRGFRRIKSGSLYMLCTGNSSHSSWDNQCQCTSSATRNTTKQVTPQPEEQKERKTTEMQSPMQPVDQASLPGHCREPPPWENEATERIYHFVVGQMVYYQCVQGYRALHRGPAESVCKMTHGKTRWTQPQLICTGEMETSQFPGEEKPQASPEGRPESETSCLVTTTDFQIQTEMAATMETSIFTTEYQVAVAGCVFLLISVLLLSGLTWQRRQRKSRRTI
Nature of the assay: flow cytometry, transfected 293T cells, 2 µg/ml. Background: A flow cytometer gives signals particle by particle.

The target of assay [3] is T3, BR3 expressed on cells (human, UniProt Q96RJ3 1-184).
T3 construct: Clone of the Origene human cDNA library
T3 sequence: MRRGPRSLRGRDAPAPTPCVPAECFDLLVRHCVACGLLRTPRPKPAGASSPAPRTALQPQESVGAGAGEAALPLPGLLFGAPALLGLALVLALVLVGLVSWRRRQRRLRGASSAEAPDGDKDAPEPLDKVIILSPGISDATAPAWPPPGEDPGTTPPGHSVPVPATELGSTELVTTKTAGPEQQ
The assay is described as follows: flow cytometry, transfected 293T cells, 2 µg/ml.

Assay [4] addresses T4, hCOLEC12-his (human, UniProt Q5KU26 59-742, sialylated O-glycans and N-glycans).
T4 construct: Whole entry named; also called human COLEC12-his; hCOLEC12 (SPR); not shown: his tag
The assay is described as follows: SPR equilibrium binding analysis, hCOLEC12 immobilised.

Assay [5] has as its target T5, human COLEC12 expressed on cells (human, UniProt Q5KU26 1-742).
T5 construct: also called hCOLEC12; C-terminal his tagged hCOLEC12
Nature of the assay: flow cytometry, transfected 293T cells, 50 µg/ml; 293T-Neo: 1.5.

The target in assay [6] is T6, human NPDC1 expressed on cells (human, UniProt Q9NQX5 35-325).
T6 construct: also called hNPDC1; hNPCD1
T6 sequence: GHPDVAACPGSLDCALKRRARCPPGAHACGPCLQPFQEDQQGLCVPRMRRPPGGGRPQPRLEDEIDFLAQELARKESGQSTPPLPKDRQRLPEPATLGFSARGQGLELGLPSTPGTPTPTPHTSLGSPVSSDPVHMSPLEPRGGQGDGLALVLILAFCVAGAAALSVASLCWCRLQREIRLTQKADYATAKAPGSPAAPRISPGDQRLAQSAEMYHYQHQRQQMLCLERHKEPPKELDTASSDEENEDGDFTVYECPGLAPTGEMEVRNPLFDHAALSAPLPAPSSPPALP
Described as above.

In assay [7] the target is T7, mouse CD99 expressed on 293T cells (mouse, UniProt Q8VCN6 29-175, sialylated O-glycans at Thr-45 and Thr-50 (cited as relevant for PILRα recognition)).
T7 construct: whole, on cells; also called mCD99; mCD99 transfectants
T7 sequence (looked up): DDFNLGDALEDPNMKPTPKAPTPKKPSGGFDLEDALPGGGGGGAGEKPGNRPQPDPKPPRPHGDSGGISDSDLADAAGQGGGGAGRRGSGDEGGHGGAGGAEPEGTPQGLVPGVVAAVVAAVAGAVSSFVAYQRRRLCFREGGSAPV
Described as above.

Assay [8] deals with T8, MAG expressed on cells (human, UniProt P20916 20-626).
T8 construct: Clone of the Origene human cDNA library; also called Myelin associated glycoprotein; SIGLEC4A
T8 sequence: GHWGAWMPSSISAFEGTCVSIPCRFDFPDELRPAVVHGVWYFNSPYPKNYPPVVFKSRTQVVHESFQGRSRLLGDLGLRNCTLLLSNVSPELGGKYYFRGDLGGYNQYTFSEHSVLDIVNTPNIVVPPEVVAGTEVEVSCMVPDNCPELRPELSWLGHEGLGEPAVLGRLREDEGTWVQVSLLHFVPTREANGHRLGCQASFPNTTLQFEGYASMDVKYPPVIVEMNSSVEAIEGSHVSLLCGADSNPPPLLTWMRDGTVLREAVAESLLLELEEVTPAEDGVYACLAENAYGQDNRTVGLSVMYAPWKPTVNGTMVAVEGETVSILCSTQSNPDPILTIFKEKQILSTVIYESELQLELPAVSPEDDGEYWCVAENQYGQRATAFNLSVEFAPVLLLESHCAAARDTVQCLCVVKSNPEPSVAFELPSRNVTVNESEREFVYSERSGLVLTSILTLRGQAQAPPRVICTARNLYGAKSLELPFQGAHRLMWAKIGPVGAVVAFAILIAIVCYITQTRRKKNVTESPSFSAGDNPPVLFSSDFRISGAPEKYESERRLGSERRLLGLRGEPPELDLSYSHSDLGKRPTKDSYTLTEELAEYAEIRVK
Nature of the assay: flow cytometry, transfected 293T cells, 50 µg/ml.

For assay [9], the target named is T9, LRRTM4 expressed on cells (human, UniProt Q86VH4 31-590).
T9 construct: Clone of the Origene human cDNA library; also called Leucine rich repeat transmembrane neuronal 4
T9 sequence (Q86VH4 31-590 limits assumed): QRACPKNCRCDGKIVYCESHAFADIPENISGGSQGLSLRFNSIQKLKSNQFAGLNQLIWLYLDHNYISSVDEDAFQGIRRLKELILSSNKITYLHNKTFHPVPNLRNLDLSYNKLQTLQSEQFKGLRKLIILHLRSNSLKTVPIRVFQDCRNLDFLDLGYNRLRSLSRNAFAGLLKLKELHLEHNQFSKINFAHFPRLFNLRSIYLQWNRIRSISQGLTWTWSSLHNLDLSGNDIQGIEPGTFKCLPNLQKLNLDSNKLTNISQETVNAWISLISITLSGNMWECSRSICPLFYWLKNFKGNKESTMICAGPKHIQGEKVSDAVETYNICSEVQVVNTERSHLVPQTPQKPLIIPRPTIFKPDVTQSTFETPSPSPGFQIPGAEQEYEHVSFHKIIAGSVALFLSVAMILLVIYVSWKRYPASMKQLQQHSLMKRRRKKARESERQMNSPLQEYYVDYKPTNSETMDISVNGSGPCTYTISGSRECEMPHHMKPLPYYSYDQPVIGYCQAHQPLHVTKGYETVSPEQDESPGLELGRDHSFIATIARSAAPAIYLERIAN
Nature of the assay: flow cytometry, transfected 293T cells, 50 µg/ml.

The target of assay [10] is T5, human COLEC12 expressed on cells. Nature of the assay: flow cytometry, transfected 293T cells, 2 µg/ml; 293T-Neo: 0.013.
The target in assay [11] is T6, human NPDC1 expressed on cells. The assay is described as above.
The target of assay [12] is T7, mouse CD99 expressed on 293T cells. The description is as above.
Assay [13] addresses T8, MAG expressed on cells. Nature of the assay: flow cytometry, transfected 293T cells, 2 µg/ml.
Assay [14] has as its target T9, LRRTM4 expressed on cells. Nature of the assay: flow cytometry, transfected 293T cells, 2 µg/ml.
The target in assay [15] is T6, human NPDC1 expressed on cells. Nature of the assay: equilibrium competition radioligand assay: 125I-hPILRα-Fc against unlabeled hPILRα-Fc on 293T cells transiently expressing hNPDC1; average of two replicate assays.
From the text: Binding to mock transfectants (grey area) represents background binding. Transfected ligand expressing cells were gated and their binding to PILRα-Fc was shown. […] Binding to mock transfectants (grey area) represents background binding. PILRα positive cells were gated and ligand fusion staining was shown.
The target of assay [16] is T1, PSS8 expressed on cells. The assay is described as follows: flow cytometry, transfected 293T cells, 50 µg/ml.
For assay [17], the target named is T2, IL-2Ra expressed on cells. Nature of the assay: flow cytometry, transfected 293T cells, 50 µg/ml.
Assay [18] concerns the target T3, BR3 expressed on cells. The assay is described as follows: flow cytometry, transfected 293T cells, 50 µg/ml.

Consider 1 molecule from patent US20150203575A1 (Genentech, published 2015).

T1 sequence (Q16651 30-343 limits assumed): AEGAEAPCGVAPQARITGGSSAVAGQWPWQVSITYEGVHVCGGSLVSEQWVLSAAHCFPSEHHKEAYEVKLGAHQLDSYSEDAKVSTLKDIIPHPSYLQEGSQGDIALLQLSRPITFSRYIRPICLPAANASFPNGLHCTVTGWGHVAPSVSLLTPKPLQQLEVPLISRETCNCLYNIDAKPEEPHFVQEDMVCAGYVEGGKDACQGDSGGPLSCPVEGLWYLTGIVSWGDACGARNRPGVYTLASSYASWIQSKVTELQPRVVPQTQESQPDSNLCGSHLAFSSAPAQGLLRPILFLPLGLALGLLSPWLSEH
T5 sequence (Q5KU26 whole entry S522P/G606S): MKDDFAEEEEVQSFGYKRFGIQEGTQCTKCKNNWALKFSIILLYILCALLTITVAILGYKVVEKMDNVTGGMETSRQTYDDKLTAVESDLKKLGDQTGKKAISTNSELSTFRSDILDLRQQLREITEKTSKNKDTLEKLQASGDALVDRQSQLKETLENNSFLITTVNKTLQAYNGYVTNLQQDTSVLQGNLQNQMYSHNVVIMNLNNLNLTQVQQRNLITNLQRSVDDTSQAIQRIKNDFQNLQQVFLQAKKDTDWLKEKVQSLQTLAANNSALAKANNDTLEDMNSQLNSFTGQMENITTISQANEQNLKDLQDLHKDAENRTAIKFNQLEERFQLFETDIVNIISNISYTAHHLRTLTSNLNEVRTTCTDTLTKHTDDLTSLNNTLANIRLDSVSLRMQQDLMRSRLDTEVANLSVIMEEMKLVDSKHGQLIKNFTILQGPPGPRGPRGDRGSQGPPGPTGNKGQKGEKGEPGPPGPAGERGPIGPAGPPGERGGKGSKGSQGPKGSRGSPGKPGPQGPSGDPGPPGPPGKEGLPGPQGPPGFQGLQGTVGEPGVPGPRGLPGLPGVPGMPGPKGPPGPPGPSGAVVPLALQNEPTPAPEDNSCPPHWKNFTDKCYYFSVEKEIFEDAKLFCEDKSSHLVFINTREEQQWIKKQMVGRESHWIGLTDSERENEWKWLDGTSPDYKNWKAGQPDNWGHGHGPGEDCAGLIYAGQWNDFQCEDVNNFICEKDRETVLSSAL
T4 sequence (Q5KU26 59-742 S522P/G606S limits assumed): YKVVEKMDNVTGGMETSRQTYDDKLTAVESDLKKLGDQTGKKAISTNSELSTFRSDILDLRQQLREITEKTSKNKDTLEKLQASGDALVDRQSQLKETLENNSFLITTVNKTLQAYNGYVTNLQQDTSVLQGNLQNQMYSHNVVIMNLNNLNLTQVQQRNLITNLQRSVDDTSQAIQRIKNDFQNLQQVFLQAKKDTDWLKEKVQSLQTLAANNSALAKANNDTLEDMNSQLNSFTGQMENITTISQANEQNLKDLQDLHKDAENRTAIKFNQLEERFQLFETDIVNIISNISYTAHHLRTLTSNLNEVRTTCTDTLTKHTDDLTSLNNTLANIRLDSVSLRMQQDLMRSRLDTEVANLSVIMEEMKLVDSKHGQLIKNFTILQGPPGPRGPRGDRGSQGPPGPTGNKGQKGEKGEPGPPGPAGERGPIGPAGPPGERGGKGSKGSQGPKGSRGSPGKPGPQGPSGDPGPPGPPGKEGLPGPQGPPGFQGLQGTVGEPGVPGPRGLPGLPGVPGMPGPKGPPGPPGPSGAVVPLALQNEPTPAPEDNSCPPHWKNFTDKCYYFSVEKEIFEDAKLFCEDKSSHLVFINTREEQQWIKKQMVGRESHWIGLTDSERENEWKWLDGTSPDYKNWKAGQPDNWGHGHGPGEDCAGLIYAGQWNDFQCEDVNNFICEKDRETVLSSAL

B1: hPILRα-Fc (Fc fusion)
chain: QPSGSTGSGPSYLYGVTQPKHLSASMGGSVEIPFSFYYPWELATAPDVRISWRRGHFHRQSFYSTRPPSIHKDYVNRLFLNWTEGQKSGFLRISNLQKQDQSVYFCRVELDTRSSGRQQWQSIEGTKLSITQAVTTTTQRPSSMTTTWRLSSTTTTTGLRVTQGKRRSDSWHISLETA
notes: also called human PILRα-Fc; WT hPILRα-Fc; not shown: Fc of mouse IgG2a (PILRα-mIgG2a, called PILRα-Fc)
Usually Kd stands for a measure of binding affinity in units of concentration. A high value points to a looser complex. Turning to B1, the “% cells in lower right quadrant” value in [1] came to 18.7%; in assay [2], 6.39%; in assay [3], 31.5%; in assay [5], 42%; in assay [6] it was 68.8%; in assay [7], 70.8%. The “% cells in lower right quadrant” value in assay [8] is 36.8%; in [9], 46%; in assay [10], 0.014%; in [11], 27.8%; in assay [12], 23.4%; in assay [13] it was 2.31%. Moreover, the “% cells in lower right quadrant” value in [14] came to 11.7%; in assay [16], 81%; in assay [17], 64.4%; in assay [18] it was 67.3%. The equilibrium dissociation constant (Kd) in assay [4] is 1100 nM; in [15], 49 nM.
